What was measured:
crystal structure = target: the molecule itself; assay: crystal structure
SEC + SEC-MALS = target: the molecule itself; assay: SEC + SEC-MALS
[1] = target: His-tagged TRIM25-CC (coiled-coil domain of TRIM25, 189-379) (human, UniProt Q14258 189-379); assay: BLI; […] (~12 ug/ml); […]; 25 °C; 50 mM HEPES pH 7.5, 150 mM NaCl, 1 mM DTT, 0.005% Tween-20; […]; conditions: both partners purified

B1: TRIM25-CC (coiled-coil domain of TRIM25, 189-379), tag removed (domain or fragment)
chain: ASLSQASADLEATLRHKLTVMYSQINGASRALDDVRNRQQDVRMTANRKVEQLQQEYTEMKALLDASETTSTRKIKEEEKRVNSKFDTIYQILLKKKSEIQTLKEEIEQSLTKRDEFEFLEKASKLRGISTKPVYIPEVELNHKLIKGIHQSTIDLKNELKQCIGRLQEPTPSSGDPGEHDPASTHKSTRP
Crystal structure
  binding result: binds

B2: Human TRIM25 CC-PRYSPRY domain (residues 189-630) (domain or fragment)
chain: ASLSQASADLEATLRHKLTVMYSQINGASRALDDVRNRQQDVRMTANRKVEQLQQEYTEMKALLDASETTSTRKIKEEEKRVNSKFDTIYQILLKKKSEIQTLKEEIEQSLTKRDEFEFLEKASKLRGISTKPVYIPEVELNHKLIKGIHQSTIDLKNELKQCIGRLQEPTPSSGDPGEHDPASTHKSTRPVKKVSKEEKKSKKPPPVPALPSKLPTFGAPEQLVDLKQAGLEAAAKATSSHPNSTSLKAKVLETFLAKSRPELLEYYIKVILDYNTAHNKVALSECYTVASVAEMPQNYRPHPQRFTYCSQVLGLHCYKKGIHYWEVELQKNNFCGVGICYGSMNRQGPESRLGRNSASWCVEWFNTKISAWHNNVEKTLPSTKATRVGVLLNCDHGFVIFFAVADKVHLMYKFRVDFTEALYPAFWVFSAGATLSICSPK
notes: also called TRIM25 coiled-coil-PRY-SPRY
SEC + SEC-MALS
  stoichiometry N: 2

B3: NS1-ED (effector domain of NS1, 79-230) (domain or fragment)
chain: MTMASVPASRYLTDMTLEEMSRDWSMLIPKQKVAGPLCIRMDQAIMDKNIILKANFSVIFDRLETLILLRAFTEEGAIVGEISPLPSLPGHTAEDVKNAVGVLIGGLEWNDNTVRVSETLQRFAWRSSNENGRPPLTPKQKREMAGTIRSEV
[1]
  Kd: 16.1 µM

From publication PMC5940772 (Nature Communications, 2018)
